The data set relates to MS2 coat protein. Put plainly: apparent KD of MS2 coat protein; designed switch direction (-1 OFF switch, 1 ON switch): -1; higher = weaker reporter binding. The method in brief: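 Each step of the titration lasted 0.8–1.5 h at the lowest concentration and 10–20 min at the highest. The protein, SNAP-549-labelled MS2 coat protein, went from 0.7 or 1.5 nM doubling to 3 µM over RNA switches transcribed on Illumina chips by stalled E. coli RNA polymerase. Normalised cluster fluorescence was curve-fitted, and the per-design median over clusters is given as apparent KD.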

[1] abbreviates: input ligand: microRNA oligo, concentration not stated.
Setting [2] is: Eterna round: R95, input ligand: FMN 200 uM.
[3] abbreviates: Eterna round: R95, input ligand: microRNA oligo, concentration not stated.
Setting [4] is: Eterna round: R95, input ligand: none.

“ACAUGUAUUGCAGGAUAUGGGACACAUGAGGAUCACCCAUGUGACCACAUGUAAUGCCACGGGUCUCAGAAGGGUAUGUACAUG [Ex NG2 #43] (Eterna round: R96, puzzle: Exclusion NG 2)”: the “apparent KD of MS2 coat protein” value came to 117 nM (input ligand: FMN 200 uM), 22.9 nM under setting [1] and 26.6 nM (input ligand: none).
As to “ACAUGUCAUCUAGGAUAUUGGACACAUGAGGAUCACCCAUGUACCCGGAGGCUUUACUAUGAGUUCGAGAAGGAGAUGUACAUG [Ex NG2 #72] (Eterna round: R96, puzzle: Exclusion NG 2)”, the “apparent KD of MS2 coat protein” value by setting is: (input ligand: FMN 200 uM) 133 nM; under setting [1], 38.6 nM; (input ligand: none) 57.9 nM.
Consider “ACAUGUCAUUGAGGAUAUCGCACACAUGAGGAUCACCCAUGUAAACGGAUGCUCAUUAGUGGGUUCGAGAAGGCGAUGUACAUU [Ex NG2 #99] (Eterna round: R96, puzzle: Exclusion NG 2)”, for which the “apparent KD of MS2 coat protein” value by setting is: (input ligand: FMN 200 uM) 64.7 nM; under setting [1], 72.9 nM; (input ligand: none) 68.5 nM.
With “ACAUGUGUUGUAGGAUAUAGGACACAUGAGGAUCACCCAUGUGGUUUCAUGUCUAACCAAGCGUCCUAGAAGGACGGCAACAUG [Ex NG2 #27] (Eterna round: R96, puzzle: Exclusion NG 2)”, the “apparent KD of MS2 coat protein” value was 23.4 nM (input ligand: FMN 200 uM), 19.4 nM under setting [1] and 19.4 nM (input ligand: none).
As for “ACAUGUUAUCCAUGAUAUCACAUGAGGAUCACCCAUGUUAAGGCGAUUUUGAGGUGUAAGCUUUGUGCUCGACUUAU [JR_STOV1_Sub055] (Eterna round: R97, puzzle: Sensor, turn-off variant 1)”, the “apparent KD of MS2 coat protein” value reads like this: (input ligand: FMN 200 uM) 107 nM; (input ligand: none) 78.8 nM.
“ACCAGACAUGAGGAUCACCCAUGUCAGGAUAUUAUUCUACCUGAAGUUCGGGAUUGUGUGAGAAGGGACUGGGA [Eternabot (L2) Solution 86] (Eterna round: R97, puzzle: Exclusion 1)”: the “apparent KD of MS2 coat protein” value is, setting by setting: (input ligand: FMN 200 uM) 17.4 nM; (input ligand: none) 16.1 nM.
On the same counts, the results for “ACCAUGUAAGGAUAUCUCGUACAAAGACGCAACUCGUCCAGAGAGAAGGUACAUGAGGAUCACCCAUGUAGACA [Eternabot (Original) Solution 39] (Eterna round: R97, puzzle: Exclusion 4)” are 152 nM and 33.5 nM.
As for “ACCCAACAUGAGGAUCACCCAUGUCAGGAUAUCCAAGCGAAAGCAAAAGCGAAAGCAAGGAGAAGGGACAAUGG [ChP 04-04-2015 #7] (puzzle: Exclusion 1)”, the “apparent KD of MS2 coat protein” value reads like this: under setting [2], 134 nM; under setting [3], 161 nM; under setting [4], 276 nM.
On the same counts, the results for “ACCCAACAUGAGGAUCACCCAUGUCAGGAUAUCCAUCAAAAGCACGAAAGGCGAGGAUGGAGAAGGGACAGAGG [ChP 04-04-2015 #2] (puzzle: Exclusion 1)” are 335 nM, 178 nM and 128 nM.
On to “ACCCAACAUGAGGAUCACCCAUGUCAGGAUAUCCAUCUAUACUCGAAAGAGUAUAGAUGGAGAAGGGACAGAGG [ChP 04-04-2015 #4] (puzzle: Exclusion 1)”, for which the “apparent KD of MS2 coat protein” value under setting [3] turned out to be 104 nM.
As for “ACCCAGUCAGGAUAUCCGGAGUUCCGCGAUGGCGGACGGUAGGAGAAGGGACAUGAGGAUCACCCAUGUAGAAA [EX4 B.17] (Eterna round: R97, puzzle: Exclusion 4)”, the “apparent KD of MS2 coat protein” value (input ligand: FMN 200 uM) worked out at 179 nM and the “apparent KD of MS2 coat protein” value (input ligand: none) came out at 34.7 nM.
As for “ACCGAAGCAGGAUAUACAUGAGGAUCACCCAUGUGCUUGCAUGGCGUGGGAAGUCAUAGUAGAAGGGCUACGCC [Onzaza] (Eterna round: R97, puzzle: Exclusion 3)”, the “apparent KD of MS2 coat protein” value by setting is: (input ligand: FMN 200 uM) 53 nM; (input ligand: none) 22.4 nM.
For the sequence “ACCGGUGUUGCGGAUAAGCUUUUCUGCUCGUUUUAUCGCACAUGAGGAUCACCCAUGUCAUCCGUCAGCAUGCAAAC [Usveen] (puzzle: Sensor v3, turn-off variant 2)”, the “apparent KD of MS2 coat protein” value came out at 22.6 nM under setting [2], 38.8 nM under setting [3] and 25.1 nM under setting [4].
“ACCUCACAUGAGGAUCACCCAUGUCAGGAUAUCUUUUAUUACAGCAAUCCUGUCGCUGAGAGAAGGGACAUUAA [EX1 #25] (Eterna round: R97, puzzle: Exclusion 1)”: the “apparent KD of MS2 coat protein” value runs as follows: (input ligand: FMN 200 uM) 33.8 nM; (input ligand: none) 28.1 nM.
On to “ACCUCACAUGAGGAUCACCCAUGUCAGGAUAUCUUUUAUUGCAGCAAUCCUGUCGCUGAGAGAAGGGACAUUAA [EX1 #26] (Eterna round: R97, puzzle: Exclusion 1)”, for which the “apparent KD of MS2 coat protein” value runs as follows: (input ligand: FMN 200 uM) 30.7 nM; (input ligand: none) 26.5 nM.
On to “ACCUCACUUGAGGAUCACCCAAGUCAGGAUAUACUCGUUUGCCGCGCGACGCGGCAUUGUAGAAGGGACGGGCU [Orquisates] (Eterna round: R97, puzzle: Exclusion 1)”, for which the “apparent KD of MS2 coat protein” value runs as follows: (input ligand: FMN 200 uM) 32 nM; (input ligand: none) 18.8 nM.
Consider “ACCUCUUGAGGAUAUACAUGAGGAUCACCCAUGUUCCUUAAUAAAAUAGUUAUAUCGUGUAGAAGGUGGGAGGC [Eternabot (L2) Solution 42] (Eterna round: R97, puzzle: Exclusion 3)”, for which the “apparent KD of MS2 coat protein” value runs as follows: (input ligand: FMN 200 uM) 11.4 nM; (input ligand: none) 69 nM.
Regarding “ACGAGGUCAGGAUAUACGGAGAGAGGGAGUUGGUUAGGGUAACAUGAGGAUCACCCAUGUAGAAGGGACUAGGG [JR_Exclu2_Sub080] (puzzle: Exclusion 2)”, under setting [3], the “apparent KD of MS2 coat protein” value was found to be 39.9 nM.
As for “ACGAUGACAGAAAGAAGUCAAAAGACAUGAGGAUCACCCAUGUAGGAUAUGGCUACGAAAAGUAGUCAGAAGGACAUGUCAUCA [Omei Exc(NG) 3 Av3] (Eterna round: R96, puzzle: Exclusion NG 3)”, the “apparent KD of MS2 coat protein” value by setting is: (input ligand: FMN 200 uM) 13.5 nM; under setting [1], 8.79 nM; (input ligand: none) 16.8 nM.
Turning to “ACGCAUUGCCUUUGGUAGUGCGUAACAUGAGGAUCACCCAUGUAGGAUAUGGUAGGCUUUGCUUACCAGAAGGACAUUAUAAAG [Mat - Exclusion NG 3 - Mod of JL - D10] (Eterna round: R96, puzzle: Exclusion NG 3)”, the “apparent KD of MS2 coat protein” value is 51.6 nM (input ligand: FMN 200 uM), 28.4 nM under setting [1] and 34.1 nM (input ligand: none).
Turning to “ACGCGAGUAGGAGGAUAUUCUGAGCGCGGGCCAGAAGAAGGCCUAGAUCGUGAACAUGAGGAUCACCCAUGUGGGAUGAUCUAA [Vevexeaus] (Eterna round: R96, puzzle: Exclusion NG 1)”, the “apparent KD of MS2 coat protein” value is, setting by setting: (input ligand: FMN 200 uM) 180 nM; under setting [1], 224 nM; (input ligand: none) 307 nM.
For the sequence “ACGGGUAAGUAAGGAUAUCCAACAGGCUGAAUUCAACCUGAACAUGAGGAUCACCCAUGUGGGUGGGAGAAGGUACUCUCCCGC [Diladiaen] (Eterna round: R96, puzzle: Exclusion NG 2)”, the “apparent KD of MS2 coat protein” value runs as follows: (input ligand: FMN 200 uM) 86.5 nM; under setting [1], 65.5 nM; (input ligand: none) 93.7 nM.
